Source: publication PMC5119886, “POWERDRESS interacts with HISTONE DEACETYLASE 9 to promote aging in Arabidopsis” (eLife, 2016)

Molecular target: T1, HDA9-3xFLAG (HISTONE DEACETYLASE 9, pHDA9::HDA9-3xFLAG/hda9) (Arabidopsis thaliana, UniProt Q8H0W2 1-426)
T1 construct: Histone deacetylase 9 (HDA9), RPD3-type deacetylase, Arabidopsis thaliana; genomic DNA with its 1 kb promoter cloned into pEarleyGate302; Primers are in Supplementary file 1; also called HDA9-FLAG; source: Arabidopsis transgenic plants (native HDA9 promoter, hda9 background): in leaf extract for IP-MS; purified on anti-FLAG M2 beads with 3xFLAG peptide elution for the pull-down
T1 sequence (looked up): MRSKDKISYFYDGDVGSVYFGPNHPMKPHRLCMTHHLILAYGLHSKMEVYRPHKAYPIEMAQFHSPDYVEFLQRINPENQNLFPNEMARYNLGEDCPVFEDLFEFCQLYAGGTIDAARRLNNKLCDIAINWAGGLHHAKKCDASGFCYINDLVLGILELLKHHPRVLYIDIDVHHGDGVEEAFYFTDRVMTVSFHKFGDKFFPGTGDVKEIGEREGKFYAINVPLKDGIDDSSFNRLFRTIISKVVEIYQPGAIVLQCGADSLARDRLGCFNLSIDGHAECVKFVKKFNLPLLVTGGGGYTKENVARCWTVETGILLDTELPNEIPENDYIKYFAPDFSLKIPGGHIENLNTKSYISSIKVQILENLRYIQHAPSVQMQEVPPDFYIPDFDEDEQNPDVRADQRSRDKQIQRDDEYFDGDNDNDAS
Assay: pull-down; purified HDA9-FLAG incubated with GST-tagged protein in 20 mM Tris-HCl 8.0, 200 mM NaCl, 1 mM EDTA, 0.5% Nonidet P-40 for one hour, then Glutathione Sepharose 4B beads for one hour at 4°C; detected with anti-GST and anti-FLAG; two technical replicates
Settings: both partners purified

binding result: binds
B1: GST-WRKY53 (GST tagged full-length WRKY53) (natural protein, Arabidopsis thaliana, UniProt Q9SUP6 1-324, looked up)
chain: MEGRDMLSWEQKTLLSELINGFDAAKKLQARLREAPSPSSSFSSPATAVAETNEILVKQIVSSYERSLLLLNWSSSPSVQLIPTPVTVVPVANPGSVPESPASINGSPRSEEFADGGGSSESHHRQDYIFNSKKRKMLPKWSEKVRISPERGLEGPQDDVFSWRKYGQKDILGAKFPRSYYRCTHRSTQNCWATKQVQRSDGDATVFEVTYRGTHTCSQAITRTPPLASPEKRQDTRVKPAITQKPKDILESLKSNLTVRTDGLDDGKDVFSFPDTPPFYNYGTINGEFGHVESSPIFDVVDWFNPTVEIDTTFPAFLHESIYY
notes: WRKY53 transcription factor, Arabidopsis thaliana; full-length cDNA cloned into pGOOD (pGEX-6P modified by adding a 6XHIS tag at the C terminus); Primers are in Supplementary file 1; source: E. coli, induced with 200 uM IPTG for three hours at 37°C, purified
